Data published in paper PMC4800440 (Nature Communications, 2016).
Values joined by “and” are separate entries in the source; they are usually repeats but may differ in a detail not shown here. Identical values can stand only once.

T1: TIF2 (623–772), (His)6-thrombin-TIF2, co-expressed with GRtm-E (human, UniProt Q15596 623-772)
T1 construct: Same limits as m2; here the tags were removed by thrombin cleavage; not shown: His6, N-terminal, cleaved
T1 sequence (looked up): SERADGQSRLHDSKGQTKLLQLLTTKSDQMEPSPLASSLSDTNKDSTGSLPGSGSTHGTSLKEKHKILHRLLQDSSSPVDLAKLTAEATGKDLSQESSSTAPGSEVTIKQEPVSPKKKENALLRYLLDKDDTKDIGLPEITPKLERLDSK

B1: GR_LBD triple mutant C638A, W557T and W712S (residue 524–777) (domain or fragment, human, UniProt P04150 524-777, looked up)
chain: TLPQLTPTLVSLLEVIEPEVLYAGYDSSVPDSTTRIMTTLNMLGGRQVIAAVKWAKAIPGFRNLHLDDQMTLLQYSWMFLMAFALGWRSYRQSSANLLCFAPDLIINEQRMTLPAMYDQCKHMLYVSSELHRLQVSYEEYLCMKTLLLLSSVPKDGLKSQELFDEIRMTYIKELGKAIVKREGNSSQNSQRFYQLTKLLDSMHEVVENLLNYCFQTFLDKTMSIEFPEMLAEIITNQIPKYSNGNIKKLLFHQK
notes: Dexamethasone present throughout; Tags removed with thrombin; The bioinformatics methods print the cysteine as Cys 636, the production methods as C638A; also called GRtm-E; GRtm LBD; not shown: NusA, N-terminal, cleaved; His6, N-terminal, cleaved
B2: human oestrogen receptor beta ligand-binding domain ERβ-EF (255–530) (domain or fragment, UniProt Q92731 255-530, looked up)
chain: VRELLLDALSPEQLVLTLLEAEPPHVLISRPSAPFTEASMMMSLTKLADKELVHMISWAKKIPGFVELSLFDQVRLLESCWMEVLMMGLMWRSIDHPGKLIFAPDLVLDRDEGKCVEGILEIFDMLLATTSRFRELKLQHKEYLCVKAMILLNSSMYPLVTATQDADSSRKLAHLLNAVTDALVWVIAKSGISSQQQSMRLANLLMLLSHVRHASNKGMEHLLNMKCKNVVPVYDLLLEMLNAHVLRGCKSSITGSECSPAEDSKSKEGSQNPQSQ
notes: Estradiol (E2) present throughout; Tag removed with TEV protease; the thioredoxin tag was separated from the complex by gel filtration; also called ERβ LBD; Trx-His-tev-ERβ-EF (255–530); source: E. coli BL21(DE3), with 10 μM estradiol; not shown: thioredoxin, N-terminal, cleaved; His, N-terminal, cleaved
B3: TIF2 (623–772), His-tb-TIF2, expressed alone for the complex with ERβ-EF (domain or fragment, human, UniProt Q15596 623-772, looked up)
chain: T1 sequence (looked up)
notes: also called transcriptional intermediary factor 2

Legend:
[1] = target: T1, TIF2 (623–772), (His)6-thrombin-TIF2, …; details: both partners purified
[2] = target: B3; assay: native MS; details: both partners purified
[3] = target: B2; assay: SEC; details: partners not purified

Binder: B1
- stoichiometry N [1]: 2 GR per TIF2 and 1 GRtm-E per TIF2

Binder: B2
- stoichiometry N [2]: 2 ERβ-EF per TIF2

Binder: B3
- binding result [3]: binds
